Test results taken from PMC8091981 (Genes & Development, 2021).

Molecular target: T1, Spt6-YW-FLAG (Y255A, W257A) (S. cerevisiae, UniProt P23615 1-1451, Y255A | W257A)
T1 sequence (looked up): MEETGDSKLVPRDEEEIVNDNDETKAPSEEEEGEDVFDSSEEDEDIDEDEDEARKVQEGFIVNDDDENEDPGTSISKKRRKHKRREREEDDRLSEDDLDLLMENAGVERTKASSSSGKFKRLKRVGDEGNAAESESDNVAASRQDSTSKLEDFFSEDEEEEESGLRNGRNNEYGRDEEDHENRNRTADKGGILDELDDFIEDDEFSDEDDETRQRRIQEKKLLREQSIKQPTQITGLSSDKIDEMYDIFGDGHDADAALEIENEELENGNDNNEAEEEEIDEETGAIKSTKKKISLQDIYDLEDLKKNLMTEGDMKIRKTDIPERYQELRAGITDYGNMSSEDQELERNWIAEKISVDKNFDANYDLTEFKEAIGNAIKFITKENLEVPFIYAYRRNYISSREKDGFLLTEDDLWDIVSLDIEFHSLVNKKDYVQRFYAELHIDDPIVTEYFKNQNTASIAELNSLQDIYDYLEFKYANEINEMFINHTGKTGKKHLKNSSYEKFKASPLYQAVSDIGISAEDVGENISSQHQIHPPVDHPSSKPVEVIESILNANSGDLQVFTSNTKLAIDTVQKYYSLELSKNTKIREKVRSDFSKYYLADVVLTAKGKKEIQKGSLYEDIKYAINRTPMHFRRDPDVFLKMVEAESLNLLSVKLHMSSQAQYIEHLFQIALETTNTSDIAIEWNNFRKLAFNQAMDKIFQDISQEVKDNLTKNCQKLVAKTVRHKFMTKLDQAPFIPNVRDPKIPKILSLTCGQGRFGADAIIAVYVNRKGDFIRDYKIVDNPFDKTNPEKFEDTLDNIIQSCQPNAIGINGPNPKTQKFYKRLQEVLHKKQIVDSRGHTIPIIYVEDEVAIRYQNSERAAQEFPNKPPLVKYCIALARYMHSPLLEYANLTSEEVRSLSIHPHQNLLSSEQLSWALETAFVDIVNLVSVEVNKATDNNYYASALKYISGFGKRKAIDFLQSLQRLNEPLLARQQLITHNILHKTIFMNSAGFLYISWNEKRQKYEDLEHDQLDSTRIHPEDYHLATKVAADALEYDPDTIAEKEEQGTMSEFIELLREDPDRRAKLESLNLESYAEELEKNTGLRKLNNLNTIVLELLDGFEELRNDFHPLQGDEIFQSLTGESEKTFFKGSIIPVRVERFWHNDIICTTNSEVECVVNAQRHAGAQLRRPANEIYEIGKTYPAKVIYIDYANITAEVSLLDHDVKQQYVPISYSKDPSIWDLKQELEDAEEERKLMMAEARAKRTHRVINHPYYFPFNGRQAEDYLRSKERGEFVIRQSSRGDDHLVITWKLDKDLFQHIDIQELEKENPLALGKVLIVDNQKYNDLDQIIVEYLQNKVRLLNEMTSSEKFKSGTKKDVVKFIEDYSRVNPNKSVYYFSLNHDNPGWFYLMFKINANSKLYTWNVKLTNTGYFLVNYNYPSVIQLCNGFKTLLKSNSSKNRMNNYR
Experiment: co-IP

B1: Spn1 (natural protein, S. cerevisiae, UniProt Q06505 1-410, looked up)
chain: MSTADQEQPKVVEATPEDGTASSQKSTINAENENTKQNQSMEPQETSKGTSNDTKDPDNGEKNEEAAIDENSNVEAAERKRKHISTDFSDDDLEKEEHNDQSLQPTVENRASKDRDSSATPSSRQELEEKLDRILKKPKVRRTRRDEDDLEQYLDEKILRLKDEMNIAAQLDIDTLNKRIETGDTSLIAMQKVKLLPKVVSVLSKANLADTILDNNLLQSVRIWLEPLPDGSLPSFEIQKSLFAALNDLPVKTEHLKESGLGRVVIFYTKSKRVEAQLARLAEKLIAEWTRPIIGASDNYRDKRIMQLEFDSEKLRKKSVMDSAKNRKKKSKSGEDPTSRGSSVQTLYEQAAARRNRAAAPAQTTTDYKYAPVSNLSAVPTNARAVGVGSTLNNSEMYKRLTSRLNKKHK
fold decrease of co-IP against wild-type Spt6-FLAG: 20 fold
